In article PMC6212398, “Competing protein-protein interactions regulate binding of Hsp27 to its client protein tau” (Nature Communications, 2018):

Key:
[1] = molecular target: Hsp27 alpha-crystallin domain (ACD, residues Q80–S176) (human) (UniProt P04792); experiment: ITC; K18 tau with Hsp27 ACD (Supplementary Figure 3B); limited by solubility
[2] = molecular target: Hsp27 alpha-crystallin domain (ACD, residues Q80–S176) (human) (UniProt P04792); experiment: ELISA; competitive ELISA of K18 tau on Hsp27 ACD (Supplementary Figure 3A); format not told
[3] = molecular target: Hsp27 ΔNTD GPG (human) (UniProt P04792); experiment: not stated; oligomeric state of Hsp27 GPG, ΔNTD and ΔNTD GPG (Supplementary Figure 8B, 8C); method not given

Hsp27 alpha-crystallin domain (ACD, residues Q80–S176) (human), sequence (P04792 80-176): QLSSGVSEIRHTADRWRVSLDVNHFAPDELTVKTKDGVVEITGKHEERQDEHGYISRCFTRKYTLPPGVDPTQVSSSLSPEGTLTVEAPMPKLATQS

K18 tau (the four microtubule-binding repeats) (domain or fragment)
Kd [1]: > 100 µM
IC50 [2]: > 100 µM

Hsp27 ΔNTD GPG (from UniProt P04792 80-205) (domain or fragment)
stoichiometry N [3]: 2
